Here are results for two molecules from patent US20190177366A1.

Square brackets hold non-standard residues; d marks the D form. * marks the point of attachment. hArg = N=C(N)NCCCC[C@H](N)C(=O)O; Pentanoyl = CCCCC(=O)*

This assay deals with PCSK9Δhelix (human) (UniProt Q8NBP7). Nature of the assay: TR-FRET competition, Ab20 as competitor. (In general: Time-resolved FRET reads energy transfer from a long-lived donor to a nearby acceptor.)
Chain of PCSK9Δhelix (human) (Q8NBP7 31-152 limits assumed, stated change not applied, chain 1 of 2): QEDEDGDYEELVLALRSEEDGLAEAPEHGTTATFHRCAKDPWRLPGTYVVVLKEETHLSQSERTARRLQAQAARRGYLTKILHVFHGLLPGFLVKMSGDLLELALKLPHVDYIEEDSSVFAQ
Chain of PCSK9Δhelix (human) (Q8NBP7 other isoform, or with tags, fused parts or gaps mutant limits assumed, chain 2 of 2): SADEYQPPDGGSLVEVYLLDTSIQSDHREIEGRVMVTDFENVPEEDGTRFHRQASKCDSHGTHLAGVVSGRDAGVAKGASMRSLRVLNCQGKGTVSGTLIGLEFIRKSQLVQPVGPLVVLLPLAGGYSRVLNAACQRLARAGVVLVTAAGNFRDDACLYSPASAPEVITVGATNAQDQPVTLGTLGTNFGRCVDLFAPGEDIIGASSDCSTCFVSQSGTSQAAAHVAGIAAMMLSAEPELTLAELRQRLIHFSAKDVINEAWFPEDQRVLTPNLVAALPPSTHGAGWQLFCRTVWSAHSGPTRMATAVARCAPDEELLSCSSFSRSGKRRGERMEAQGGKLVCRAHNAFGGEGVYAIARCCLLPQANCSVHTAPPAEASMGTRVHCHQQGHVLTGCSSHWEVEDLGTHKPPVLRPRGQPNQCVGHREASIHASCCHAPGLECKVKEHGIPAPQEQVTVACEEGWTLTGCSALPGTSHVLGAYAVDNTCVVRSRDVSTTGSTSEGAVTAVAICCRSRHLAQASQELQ

B1: Compound 118 (peptide)
peptide: Pentanoyl-WNLV[hArg]IGLTR-NH2
SMILES: CCCCC(=O)N[C@@H](Cc1c[nH]c2ccccc12)C(=O)N[C@@H](CC(N)=O)C(=O)N[C@@H](CC(C)C)C(=O)N[C@H](C(=O)N[C@@H](CCCCNC(=N)N)C(=O)N[C@H](C(=O)NCC(=O)N[C@@H](CC(C)C)C(=O)N[C@H](C(=O)N[C@@H](CCCNC(=N)N)C(N)=O)[C@@H](C)O)[C@@H](C)CC)C(C)C
B1 registered a fold increase of inhibition against the arginine peptide (Compound 112) of 5 fold.

B2: Compound 111 (peptide)
peptide: Pentanoyl-WNLVRIGLLR-NH2
SMILES: CCCCC(=O)N[C@@H](Cc1c[nH]c2ccccc12)C(=O)N[C@@H](CC(N)=O)C(=O)N[C@@H](CC(C)C)C(=O)N[C@H](C(=O)N[C@@H](CCCNC(=N)N)C(=O)N[C@H](C(=O)NCC(=O)N[C@@H](CC(C)C)C(=O)N[C@@H](CC(C)C)C(=O)N[C@@H](CCCNC(=N)N)C(N)=O)[C@@H](C)CC)C(C)C
The term IC50 denotes the concentration that inhibits the measured activity by half. Read a high IC50 as a need for much substance. B2 yielded an IC50 of less than 10 µM.
